Residue numbers refer to the chain shown, from its start.
Tests used:
[1] = biological target: SAFB2 SAP domain (21-70), wild type (human) (UniProt Q14151); assay: SEC; preparative size exclusion on HiLoad 16/600 SD 75 in 25 mM sodium phosphate, 150 mM NaCl, 0.02% NaN3, pH 6.5; size from calibration
SAFB2 RRM (404-485) [2] = biological target: T1, SAFB2 RRM (404-485) (Homo sapiens, UniProt Q14151 404-485); assay: NMR titration; CSPs equal to A7/C7; NMR: 20 mM BisTris, 150 mM NaCl, pH 6.5, 5% D2O, 298 K (RRM plus 2 mM TCEP). EMSA: 25 mM sodium phosphate, 150 mM NaCl, 0.02% NaN3, pH 6.5, 10 mM MgCl2, 0.6 ug; conditions: protein: recombinant; tags: N-terminal GAM left after TEV cleavage (His6-Trx removed); blunt
SAFB2 RRM (404-485) [3] = biological target: T1, SAFB2 RRM (404-485); assay: NMR titration; significant CSPs of RNP residues; NMR: 20 mM BisTris, 150 mM NaCl, pH 6.5, 5% D2O, 298 K (RRM plus 2 mM TCEP). EMSA: 25 mM sodium phosphate, 150 mM NaCl, 0.02% NaN3, pH 6.5, 10 mM MgCl2, 0.6 ug; conditions: protein: recombinant; tags: N-terminal GAM left after TEV cleavage (His6-Trx removed)
SAFB2 SAP WT (21-70) [4] = biological target: T2, SAFB2 SAP WT (21-70) (Homo sapiens, UniProt Q14151 21-70); assay: NMR titration; up to 6x DNA; fast exchange; NMR: 20 mM BisTris, 150 mM NaCl, pH 6.5, 5% D2O, 298 K (RRM plus 2 mM TCEP). EMSA: 25 mM sodium phosphate, 150 mM NaCl, 0.02% NaN3, pH 6.5, 10 mM MgCl2, 0.6 ug; conditions: protein: recombinant; tags: N-terminal GAM left after TEV cleavage (His6-Trx removed); blunt
T2 chain: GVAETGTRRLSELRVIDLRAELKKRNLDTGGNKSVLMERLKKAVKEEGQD

SAFB2 SAP WT (21-70) [5] = biological target: T2, SAFB2 SAP WT (21-70); assay: EMSA; 0-40 uM SAP; yeast tRNA, 10 mM MgCl2; slight preference for AT over GC; apparent micromolar affinity; NMR: 20 mM BisTris, 150 mM NaCl, pH 6.5, 5% D2O, 298 K (RRM plus 2 mM TCEP). EMSA: 25 mM sodium phosphate, 150 mM NaCl, 0.02% NaN3, pH 6.5, 10 mM MgCl2, 0.6 ug; conditions: protein: recombinant; tags: N-terminal GAM left after TEV cleavage (His6-Trx removed); label: 5'-6-FAM on fw strand; blunt
SAFB2 SAP WT (21-70) [6] = biological target: T2, SAFB2 SAP WT (21-70); assay: NMR titration; CSP as for 16mer; NMR: 20 mM BisTris, 150 mM NaCl, pH 6.5, 5% D2O, 298 K (RRM plus 2 mM TCEP). EMSA: 25 mM sodium phosphate, 150 mM NaCl, 0.02% NaN3, pH 6.5, 10 mM MgCl2, 0.6 ug; conditions: protein: recombinant; tags: N-terminal GAM left after TEV cleavage (His6-Trx removed); blunt
SAFB2 SAP K53A/S54A = biological target: T3, SAFB2 SAP K53A/S54A (Homo sapiens, UniProt Q14151 21-70, K53A;S54A); assay: NMR titration; 6x DNA; no significant CSPs; NMR: 20 mM BisTris, 150 mM NaCl, pH 6.5, 5% D2O, 298 K (RRM plus 2 mM TCEP). EMSA: 25 mM sodium phosphate, 150 mM NaCl, 0.02% NaN3, pH 6.5, 10 mM MgCl2, 0.6 ug; conditions: protein: recombinant; tags: N-terminal GAM left after TEV cleavage; blunt
T3 chain: T2 chain with K33A, S34A

T1 sequence (Q14151 404-485): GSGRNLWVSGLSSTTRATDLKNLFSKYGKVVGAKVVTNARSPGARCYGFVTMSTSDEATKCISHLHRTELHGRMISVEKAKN

Molecule: SAFB2 SAP domain (21-70), wild type (from UniProt Q14151 21-70) (domain or fragment)
- stoichiometry N [1]: 2

B1: dsGC16mer (dsDNA)
DNA 1: CGCCCCCGCGCCCGCG
DNA 2: CGCGGGCGCGGGGGCG
- binding result (SAFB2 RRM (404-485) [2]): binds

Molecule: AAAAAAA (ssRNA) [A7]
- binding result (SAFB2 RRM (404-485) [3]): binds

B2: dsAT16mer (dsDNA)
DNA 1: GCGCACAATATAACGC
DNA 2: GCGTTATATTGTGCGC
- binding result (SAFB2 RRM (404-485) [2]): binds
- binding result (SAFB2 SAP WT (21-70) [4]): binds

B3: dsAT13mer (dsDNA)
DNA 1: GCAATAAATACG
DNA 2: CGTATTTATTGC
- binding result (SAFB2 SAP WT (21-70) [5]): binds

B4: dsAT9mer (dsDNA)
DNA 1: CAATATAAC
DNA 2: GTTATATTG
- binding result (SAFB2 SAP WT (21-70) [6]): binds
- binding result (SAFB2 SAP K53A/S54A): no binding

Molecule: CCCCCCC (ssRNA) [C7]
- binding result (SAFB2 RRM (404-485) [3]): binds

From paper PMC9958909, “Insight into the Structural Basis for Dual Nucleic Acid—Recognition by the Scaffold Attachment Factor B2 Protein”
